Experimental data: patent publication US20080227700A1, “Compositions and Methods for Treatment of Protein Misfolding and Protein Aggregation Diseases” (priority 2004, published 2008)

Experiments:
[1] = tested on: βL crystallin; experiment: Chaperone assay, thermal aggregation of βL crystallin; type: biochemical; settings: light scattering at λ=340 nm; 1:10 target protein:peptide; comparison among five peptides
Experimental: Chaperone Assays. Chaperone assays of the five peptides were performed using previously established methods with minor modifications. Muchowski et al., J Mol Biol 289: 397-411, 1999. A 1:1 monomeric molar ratio of chaperone: target protein was determined to be the optimum ratio and all subsequent chaperone assays of the β3 mutants were performed in triplicate and at a 1:1 monomeric molar ratio of chaperone: target protein in a 96-well ELISA micro-titer plate. […] of the chaperone and βL crystallin were mixed in a total volume of 200 μL buffer (5 mM PBS, pH 7.0). Light scattering at λ=340 nm was measured using a Multiskan MCC/340 plate reader before heating (time=0). After the first reading, the plate was heated at 50° C. and readings were taken at fifteen minute intervals for one hour.
The ability of the peptides to suppress the thermal aggregation of βL crystallin was measured spectrophotometrically as light scattering at λ=340 nm from solutions containing 1:10 monomeric molar ratio of target protein: peptide.

[2] = molecular target: T1, γD crystallin (Homo sapiens, UniProt P07320); experiment: γD crystallin ThioflavinT fluorescence (fibrillization of γD crystallin); type: biochemical; settings: 1:1 γD crystallin:peptide; for effect on the fibrillization of γD crystallin: ThioflavinT fluorescence after 72 hrs, comparison among αB crystallin and five peptides
T1 sequence (P07320 1-174): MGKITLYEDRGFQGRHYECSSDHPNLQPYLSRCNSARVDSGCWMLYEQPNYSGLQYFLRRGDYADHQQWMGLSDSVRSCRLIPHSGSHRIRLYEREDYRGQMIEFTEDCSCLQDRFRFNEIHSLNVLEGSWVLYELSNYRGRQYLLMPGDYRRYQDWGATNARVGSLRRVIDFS
Experimental: γD crystallin Thioflaviin T fluorescence. γD crystallin fibrils were formed in a similar way to that of γ crystalline. Meehan et al., J Biol Chem 279: 3413-3419, 2004. Peptides were dissolved to […] IN tfe AND DILUTED to 0.91 mM stock solutions in 10% TFE, pH 2.0.
3.5 mg of ThioflavinT was dissolved in 100 μL of 50 mM Glycine pH 8.5. A stock solution of 1 mg/ml (0.22 mM) Aβ was prepared. 20 μl Aβ, 5 μl chaperone, 2 μl ThioflavinT was mixed with 73 μL 10% TFE, pH 2.0. Fluorescence was read using a Beckman Coultier DTX 880 multimode detector. Samples were heated at 50° C. for 72 hours and fluorescence was read again.
The fibrillization of γD crystallin was measured as fluorescence of the fluorescent dye ThioflavinT from solutions containing 1:1 monomeric molar ratio of γD crystallin:peptide. In the absence of fibrils ThioflavinT had little or no fluorescence. The fluorescence of the ThioflavinT bound to γD crystallin fibrils in the absence of any other molecule after 72 hrs was set to 100%. […] Fibril formation=ΔfluorescenceγD crystallin (with chaperone)*100/ΔfluorescenceγD crystallin (without chaperone).

[3] = molecular target: beta amyloid (Homo sapiens, UniProt P05067); experiment: αB crystallin protein pin array screened for binding to beta amyloid; settings: immobilized 8-mer peptide; absorption at 450 nm; assayed 2-5 times
Source text: αB Crystallin peptides that bind the target protein beta-amyloid were identified by screening an αB crystallin protein pin array, which provides a systematic method for evaluating interactions between peptides corresponding to residues 1-175 of human αB crystallin and selected target proteins in a parallel and simultaneous manner.
Peptides were synthesized on derivatized polyethylene pins arranged in a microtiter plate format. Each peptide was 8 amino acids in length and consecutive peptides were offset by 2 amino acids. All peptides were covalently bonded to the surface plastic pins. The first immobilized peptide was 1MDIAIHHP8 and the last peptide was 168PAVTAAPK175 for the human αB crystallin.
After synthesis, the pins were pre-coated at room temperature with 2% Bovine Serum Albumin (BSA), 0.1% Tween-20 and 0.1% Sodium azide in 10 mM phosphate buffered saline pH 7.2 (PBS) for 1 hr, and washed three times for 10 mins each with 10 mM PBS. To screen for binding to the peptides, fixed concentrations of the target protein beta amyloid was dissolved in 10 mM PBS, containing 0.05% Tween-20, added to each well and incubated for 1 hr at room temperature. The pin array was washed three times for 10 mins each with 10 mM PBS, containing 0.05% Tween-20. Monoclonal or polyclonal primary antibodies for the target protein beta amyloid was diluted into PBS buffer, added to each well and incubated for 1 hr at room temperature. Subsequently, the pin array was washed three times for 10 mins each with 10 mM PBS containing 0.05% Tween-20. Anti-rabbit horse-radish peroxidase conjugate secondary antibodies was diluted into PBS buffer, added to each well and incubated for 1 hr at room temperature. The pin array was washed three times for 10 mins each with 10 mM PBS containing 0.05% Tween-20. A chromogenic substrate of horse-radish peroxidase 3,3′,5,5′-Tetramethylbenzidine (TMB) (Pharmingen, San Diego, Calif.) which is colorless was added, and the reaction was carried out for 45 min.
The reaction was stopped by adding 6N sulfuric acid, which changes the color from blue to yellow. The absorption at 450 nm was measured by an ELISA reader (BioTek, Winooski, Vt.).
The pin array was regenerated by sonication in a water bath (VWR Aquasonic, West Chester, Pa.) with 100 mM PBS, containing 1% Sodium dodecyl sulfate (SDS) and 0.1% 2-Mercaptoethanol @ 60° C. for 10 mins. Next, the pin array was rinsed three times in deionized water, preheated to 60° C. for 30 secs each time, and shaken in water preheated at 60° C. for 30 min. The pin array was then washed with methanol at 60° C. for 15 secs and air-dried and stored @−20° C. for future use. Each target protein was assayed 2-5 times against the human αB crystallin protein pin array peptides to verify the reproducibility of the results. Peptides numbered 5, 7, 8, 9, 13, 19, 22, 23, 24, 27, 35, 38, 45, 51, 52, 56, 57, 61, 66, 71, 72, and 79 in Table 2 reproducibly tested positive in the protein pin assay.

[4] = tested on: bovine βH crystallin; experiment: Protein pin array interaction with βH crystallin; type: binding; settings: unheated βH crystallin; similar maxima with βH crystallin pre-heated at 45° C. for fifteen minutes
Source text: (§1) Synthesis of Pins, binding and detection of peptides binding to ligand proteins. The αB crystallin protein pin array was used to measure the interaction between peptides and chaperone target proteins including bovine βH crystallin, human γD crystallin, equine alcohol dehydrogenase (ADH) and porcine citrate synthase (CS) as described (FIG. 12). Ghosh and Clark, Protein Sci 14: 684-95, 2005.
(§2) Refer to the methods section for detailed protocols. The absorbance corresponding to the blue coloration in each well was measured at λ=450 nm and plotted against the amino acid sequence of the corresponding peptide in that well (FIGS. 13 and 14). Wells containing peptides that have strong interactions with target proteins are dark blue and wells containing peptides that have weak or no interaction with target proteins are light blue or clear.
(§3) The purity of the target proteins used in the pin array assays, bovine βH crystallin, human γD crystallin, equine alcohol dehydrogenase (ADH) and porcine citrate synthase (CS) were determined to be >90% by SDS-PAGE. In addition, primary antibodies for each target protein were specific to that target protein and consequently contaminating proteins that may bind to the peptides will not be detected. Eighty-four sequential and overlapping peptide fragments corresponding to residues 1-175 of human αB crystallin were synthesized employing a simultaneous peptide synthesis strategy developed by Geysen, called Multipin Peptide Synthesis (Mimotopes, San Diego, Calif.). Geysen, Southeast Asian J Trop Med Public Health 21: 523-33, 1990; Chin et al., J Org Chem 62: 538-539, 1997. Peptides were immobilized on derivatized polyethylene pins arranged in a microtiter ELISA plate format. Each peptide was eight amino acids in length and consecutive peptides were offset by two amino acids. All peptides were bound covalently to the surface of the plastic pins. The first peptide was […] for human αB crystallin.
(§4) Ghosh and Clark, Protein Sci 14: 684-95, 2005. […] The intensity of the blue color in the wells was measured at 450 nm using an ELISA plate-reader (BioTek, Winooski, Vt.). The intensity of the blue color (plotted on the X-axis) was a measure of the interaction between αB crystallin peptides (plotted on the Y-axis) and target proteins. To measure the effect of temperature on the interactions between interactive peptides and the target proteins, the target proteins were heated in a water-bath at 45° C. for fifteen minutes prior to use. Pin arrays are unable to differentiate between monomers, dimers or oligomers of target proteins that exist in solution. Instead, pin arrays are very sensitive detectors of interactions between individual peptides and the entire population (monomers, dimers or oligomers) of specific target proteins that may exist in solution under specific conditions. Each target protein was assayed two to five times. A single pin array was used for all experiments and no change in interactions was observed after more than thirty repetitions. The last three peptides of the protein pin array, 163REEKPAVT170, 165EKPAVTAA172, 167PAVTAAPK174, correspond to the epitope (163REEKPAVTAAPKK175) recognized by the primary antibody for human αB crystallin. A positive reaction is observed for these three peptides in the absence of human αB crystallin as the ligand due to direct binding of the anti-human αB crystallin antibody to these three peptides. The loss of efficiency for the pin array was measured using this assay. The loss of efficiency for the pin array was determined to be <5% by after more than 30 assays.
(§5) The amino acid sequences of each 8-mer human αB crystallin peptide immobilized sequentially on 84 pins in a 96-well ELISA plate format are listed on the Y-axis. […]

[5] = molecular target: T2, equine alcohol dehydrogenase (ADH) (Equus caballus, UniProt P00327); experiment: Protein pin array interaction with alcohol dehydrogenase; type: binding; settings: ADH as ligand, unheated and pre-heated
T2 construct: purchased
Source text: as §1, §2, §3, §4
(§6) The Y-axis lists the amino acid sequences of the 8-mer peptides that are immobilized sequentially in a 96-well format. […]

[6] = molecular target: T3, porcine citrate synthase (CS) (Sus scrofa, UniProt P00889); experiment: Protein pin array interaction with citrate synthase; type: binding; settings: CS as target protein, unheated and pre-heated
T3 construct: purchased
T3 sequence (P00889 28-464): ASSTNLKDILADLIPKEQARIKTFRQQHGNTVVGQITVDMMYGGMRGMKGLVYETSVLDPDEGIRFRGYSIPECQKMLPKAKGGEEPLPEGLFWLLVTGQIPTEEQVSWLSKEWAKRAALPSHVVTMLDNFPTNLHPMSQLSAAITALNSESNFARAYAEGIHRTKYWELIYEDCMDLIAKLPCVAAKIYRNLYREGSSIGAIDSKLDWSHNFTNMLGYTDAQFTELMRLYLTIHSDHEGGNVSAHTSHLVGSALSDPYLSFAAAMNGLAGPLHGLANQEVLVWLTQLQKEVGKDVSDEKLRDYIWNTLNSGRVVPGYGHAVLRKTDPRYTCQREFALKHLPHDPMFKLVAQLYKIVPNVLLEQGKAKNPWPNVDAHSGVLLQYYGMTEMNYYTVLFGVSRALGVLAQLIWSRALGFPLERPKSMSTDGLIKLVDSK
Source text: as §1, §2, §3, §4, §6

[7] = molecular target: T1, γD crystallin; experiment: Protein pin array interaction with γD crystallin; type: binding; design: purchased; settings: unheated γD crystallin; similar peptide sequences with γD crystallin pre-heated at 45° C. for fifteen minutes
Source text: as §1, §2, §3, §4, §5

[8] = molecular target: Aβ (Homo sapiens, UniProt P05067); experiment: Aβ ThioflavinT fluorescence (fibrillization of Aβ); type: biochemical; settings: ThioflavinT; 50° C. for 72 hours; 1:10 Aβ:peptide; no chaperone 1,324,974,048
Experimental: Aβ Thioflaviin T fluorescence. Aβ fibrils were grown in the presence and absence of αB crystallin and peptides in conditions similar to that previously described for the presence of αB crystallin. Bakthisaran et al., Biochem J, 2005. Peptides were dissolved to 9.1 mM in trifluorethanol (TFE) and diluted to 0.91 mM stock solutions in 50 mM PBS, 100 mM NaCl, pH 7.4. 3.5 mg of ThioflavinT was dissolved in 100 μl of 50 mM Glycine pH 8.5. A stock solution of 1 mg/ml (0.22 mM) Aβ was prepared. 20 μl Aβ, 50 μl chaperone, 2 μl ThioflavinT was mixed with 28 μl 50 mM PBS, 100 mM NaCl, pH 7.4. Fluorescence was read using a Beckman Coultier DTX 880 multimode detector. Samples were heated at 50° C. for 72 hours and fluorescence was read again.
The fibrillization of Aβ was measured as fluorescence of the fluorescent dye ThioflavinT from solutions containing 1:10 monomeric molar ratio of Aβ:peptide. In the absence of Aβfibrils, ThioflavinT had little or no fluorescence. The fluorescence of the ThioflavinT bound to Aβ fibrils in the absence of any other molecule after 72 hrs was set to 100%. […] Fibril formation=ΔfluorescenceAβ (with chaperone)*100/ΔfluorescenceAβ (without chaperone).

T2 sequence (P00327 whole entry): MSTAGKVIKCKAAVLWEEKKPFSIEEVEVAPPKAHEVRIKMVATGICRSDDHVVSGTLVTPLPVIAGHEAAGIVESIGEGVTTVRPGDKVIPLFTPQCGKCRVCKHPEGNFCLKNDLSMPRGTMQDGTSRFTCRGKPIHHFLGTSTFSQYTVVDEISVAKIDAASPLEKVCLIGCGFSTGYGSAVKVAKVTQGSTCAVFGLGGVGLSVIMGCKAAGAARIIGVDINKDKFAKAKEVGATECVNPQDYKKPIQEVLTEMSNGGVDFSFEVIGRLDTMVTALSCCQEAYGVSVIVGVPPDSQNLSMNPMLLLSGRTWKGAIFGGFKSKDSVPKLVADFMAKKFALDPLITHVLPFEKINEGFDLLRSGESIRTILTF

With ERTIPITRE as the substance, how does the “effect on the thermal aggregation of βL crystallin (chaperone activity)” value [1] read?
The value was “slightly lower than the HG peptide”.

STSLSPFYLRPPSFLRAP was tested. Which “effect on the fibrillization of γD crystallin” value [2] did it give?
The value was “strongest effect”.

And the “effect on the thermal aggregation of βL crystallin (chaperone activity)” value [1]?
Its value is “weakest effect”.

For WIRRPFFP [Peptide 5], which “protein pin assay result with target protein beta amyloid” value [3] is on record?
Its value is “positive”.

What about the “absorbance at λ=450 nm, interaction with βH crystallin” value [4] of the same substance?
Its value is “Maximum absorbances”.

What about the “absorbance at λ=450 nm, interaction with ADH” value [5] of the same substance?
The value was “Maximum absorbances”.

And the “absorbance at λ=450 nm, interaction with CS” value [6]?
Its value is “absorbance maxima”.

What about the “absorbance at λ=450 nm, interaction with γD crystallin” value [7] of the same substance?
The value was “maximum absorbances”.

With “αB crystallin: wild type recombinant human αB crystallin, a small heat shock protein and molecular chaperone” as the substance, how does the “Δfluorescence (Aβ)” value [8] read?
The value was 318,471,040.

What about the “effect on the fibrillization of γD crystallin” value [2] of the same substance?
Its value is “weakest effect”.

And the “Δfluorescence (γD crystallin)” value ([2]; ThioflavinT, 50° C. for 72 hours, no chaperone 888,803,840)?
The value was 1,079,141,056.
